# Source: patent US20200071394A1 (HUABO BIOPHARM SHANGHAI, published 2020)
# Where two headings read alike, the source gives them in different places.
# T1: Recombinant rat IL-17A, ABGENT, PBV10154r (rat, UniProt Q61453 18-150, limits assumed)
# T1 sequence (looked up): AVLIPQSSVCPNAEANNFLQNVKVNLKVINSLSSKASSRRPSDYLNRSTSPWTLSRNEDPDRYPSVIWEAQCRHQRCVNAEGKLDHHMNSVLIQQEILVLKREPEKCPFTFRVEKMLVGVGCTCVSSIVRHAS
# T2: Recombinant Mouse IL-17A, Sino Biological, PBV10159R-010 (mouse, UniProt Q62386 26-158)
# T2 construct: also called murine IL-17A
# T2 sequence (looked up): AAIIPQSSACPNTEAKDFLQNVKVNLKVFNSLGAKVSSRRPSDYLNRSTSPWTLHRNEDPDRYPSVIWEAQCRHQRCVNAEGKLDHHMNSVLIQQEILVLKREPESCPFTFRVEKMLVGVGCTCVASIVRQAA
# T3: Recombinant human IL-17B, R&D, 8129-IL (human, UniProt Q9UHF5 21-180)
# T3 sequence (looked up): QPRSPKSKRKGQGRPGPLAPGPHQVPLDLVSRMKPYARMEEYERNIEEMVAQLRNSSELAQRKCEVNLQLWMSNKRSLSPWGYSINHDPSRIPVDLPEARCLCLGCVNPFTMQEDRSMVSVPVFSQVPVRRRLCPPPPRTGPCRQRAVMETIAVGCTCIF
# T4: Recombinant human IL-17D, Sino Biological, 10076-H08S (human, UniProt Q8TAD2 16-202)
# T4 sequence (looked up): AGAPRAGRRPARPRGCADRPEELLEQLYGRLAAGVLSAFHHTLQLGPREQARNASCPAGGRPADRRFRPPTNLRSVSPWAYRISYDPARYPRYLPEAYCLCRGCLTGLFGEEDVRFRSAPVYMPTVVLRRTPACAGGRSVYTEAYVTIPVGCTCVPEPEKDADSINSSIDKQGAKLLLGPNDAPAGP
# T5: Recombinant human IL-17E, ABGENT, PBV10154r (human, UniProt Q9H293 33-177, limits assumed)
# T5 construct: The catalogue number printed is the same as that printed for rat IL-17A; also called IL-25
# T5 sequence (looked up): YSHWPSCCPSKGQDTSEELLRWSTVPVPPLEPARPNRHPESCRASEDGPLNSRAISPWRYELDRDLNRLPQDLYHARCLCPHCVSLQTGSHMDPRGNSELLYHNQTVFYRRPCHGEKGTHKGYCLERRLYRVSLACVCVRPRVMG
# B1: humanized anti-IL-17A antibody HB0017 (antibody, human IgG1, V domains shown)
# VH: QVQLVQSGSELKKPGASVKVSCKASEYIFTNYGMNWVKQAPGQGFEWMGWIDTNTGEPTYAQGFTGRFVFSLDTSVSTAYLQISSLKAEDTATYYCANYGWGYFDYWGQGTTVTVSS
# VL: DVVMTQTPPSLPVNPGEPASISCRSSQSLVHSNGYTYLHWYLQKPGQSPQLLIYKVSNHLSGVPDRFSGSGSGTDFTLKISWVEAEDVGVYFCSQSTHVPYTFGGGTKLEIK
# notes: also called HB0017 antibody; HBH17 antibody
# B2: Chimeric antibody (mouse 7D6/5H8 VH and VL on human IgG1 and k constant regions) (antibody, V domains shown)
# VH: QIQLVQSGPELKKPGETVKISCKASEYIFTNYGMNWVKEAPGKAFKWMGWIDTNTGEPTYAEDFKGRFAFSLDSSATSAFLQISNLKDDDTGTYFCANYGWGYFDYWGQGTTLTVSS
# VL: DVVMTQTPLSLPVSLRDQASISCISSQSLVHSNGYTYLHWYLQKPGQSPKLLIYKVSNRFSGVPDRFSGSGSGTDFTLKISRVEAADLGVYFCSQSTHVPYTFGGGTKLEIK
# notes: Human IgG1 heavy chain constant region and human kappa light chain constant region; Expressed in CHO-K1 cells
# B3: mouse anti-human IL-17A monoclonal antibody of hybridoma 7D6/5H8 (antibody, V domains shown)
# VH: B2 VH
# VL: B2 VL
# notes: Mouse antibody from hybridoma supernatant; also called original murine antibody; IL17-HC1 / IL17-LC1
# Legend:
# [1] = molecular target: T6, Recombinant Human IL-17A, Sino Biological, 12047-HNAS (human, UniProt Q16552 24-155, limits assumed); test: cell-based or functional assay
# T6 sequence (Q16552 24-155 limits assumed, form in doubt): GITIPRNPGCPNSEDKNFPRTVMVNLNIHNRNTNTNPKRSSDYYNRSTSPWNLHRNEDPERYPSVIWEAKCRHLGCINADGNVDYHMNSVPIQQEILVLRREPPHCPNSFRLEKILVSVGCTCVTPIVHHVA
# [2] = molecular target: T6, Recombinant Human IL-17A, Sino …; test: cell-based or functional assay; remark: listed apart in the source
# [3] = molecular target: T6, Recombinant Human IL-17A, Sino …; test: indirect ELISA, human IL-17A coated
# [4] = molecular target: T1, Recombinant rat IL-17A, ABGENT, …; test: indirect ELISA, rat IL-17A coated
# [5] = molecular target: T6, Recombinant Human IL-17A, Sino …; test: indirect ELISA, human IL-17A coated; remark: listed apart in the source
# Protocol: (§1) Human IL-17A was formulated into a 1 μg/ml coating solution with CBS, and added to the ELISA plate at 50 μL/well, and the plate was coated at 2 to 8° C. for 12 hours or longer. The residue coating solution was discarded, 3% milk was added, 200 μL per well, and the plate was blocked at room temperature for 1 hour. Each well was washed with not less than 200 μL of PBST, and the hybridoma supernatant was diluted to 100 μg/ml, and was 10-fold diluted for 10 gradients, and added to the plate at 100 μL/well. […] After incubating for 1 hour at room temperature, each well was added with not less than 200 μL of PBST and washed 4 times, and patted to dryness. TMB development solution was added at 100 μL per well. After reacting for 5 minutes at room temperature, the reaction was quenched by adding 2M H₂SO₄ at 50 μL/well. After the reaction was quenched, the ELISA plate was placed on a microplate reader, and the absorbance OD450 value was read at a wavelength of 450 nm.
# [6] = molecular target: T2, Recombinant Mouse IL-17A, Sino …; test: indirect ELISA, mouse IL-17A coated
# Protocol: as §1
# [7] = molecular target: T6, Recombinant Human IL-17A, Sino …; test: indirect ELISA, human IL-17A coated; remark: listed apart in the source
# Protocol: as §1
# [8] = molecular target: T6, Recombinant Human IL-17A, Sino …; test: indirect ELISA, human IL-17A coated; remark: listed apart in the source
# Protocol: as §1
# [9] = molecular target: T7, Recombinant Rhesus IL-17A, Sino Biological, 90306-KNAB (Rhesus, UniProt F6T3G5 24-155); test: indirect ELISA, Rhesus IL-17A coated
# T7 construct: also called macaque IL-17A
# T7 sequence (F6T3G5 entry or part of it): as the sequence (Q16552 24-155 limits assumed, form in doubt) above, with T3A, N17T, I77V, P104R counted along it
# [10] = molecular target: T3, Recombinant human IL-17B, R&D, 8129-IL; test: indirect ELISA, IL-17B coated at 1 µg/ml
# [11] = molecular target: T4, Recombinant human IL-17D, Sino …; test: indirect ELISA, IL-17D coated at 1 µg/ml
# Protocol: as §1
# [12] = molecular target: T5, Recombinant human IL-17E, ABGENT, …; test: indirect ELISA, IL-17E coated at 1 µg/ml
# Protocol: as §1
# [13] = molecular target: T6, Recombinant Human IL-17A, Sino …; test: SPR (Biacore), antibody captured by anti-human antibody on the chip, IL-17A as analyte, 1:1 model
# Protocol: In this example, the antigen-antibody binding kinetics and affinity were determined using BIACORE method.
# Human Antibody Capture Antiboy was amino-coupled immobilized on the Sereis S Sensor Chip CMS chip using Amine Coupling Kit, anti-Human Capture-CMS chip. The chip was placed at room temperature for 20-30 mins, and loaded into the instrument. The antigen was diluted with equilibration buffer at an initial dilution of lOnM, and was diluted for 5 concentration gradients. 2 zero concentrations (i.e., equilibration buffer) and one repeat concentration (generally the lowest concentration repeat) were set. The antibody sample was diluted to the experimental working concentration with an equilibration buffer and sealed at 2-8° C.
# [14] = molecular target: T6, Recombinant Human IL-17A, Sino …; test: indirect ELISA, human IL-17A coated; remark: listed apart in the source
# Protocol: as §1
# [15] = molecular target: T2, Recombinant Mouse IL-17A, Sino …; test: indirect ELISA, mouse IL-17A coated; remark: listed apart in the source
# Protocol: as §1
# [16] = molecular target: T6, Recombinant Human IL-17A, Sino …; test: indirect ELISA, human IL-17A coated, hybridoma supernatant
# Protocol: as §1
binder,measurement,setting,value
B1,biological activity (IL-6 release by HT1080 cells) against the positive control antibody,[1],~6 fold
same,IC50 of IL-6 release by HT1080 cells stimulated with IL-17A and TNFα,[2],0.09 µg/mL
same,improvement of EC50 against the chimeric antibody,[3],~150%
same,improvement of EC50 against the original murine antibody,[3],~11.6 times
same,EC50,[4],0.24 µg/mL
same,EC50,[5],0.0154 µg/mL
same,EC50,[6],0.075 µg/mL
same,EC50,[7],0.0154 µg/mL
same,EC50,[8],0.0154 µg/mL
same,EC50,[9],0.088 µg/mL
same,binding result,[10],no binding
same,binding result,[11],no binding
same,binding result,[12],no binding
same,Kd,[13],0.0198 nM
B2,EC50,[14],0.0386 µg/mL
same,EC50,[15],0.0392 µg/mL
B3,EC50,[16],0.194 µg/mL
